From the domain aggregation screens of Martell et al. (2025)

assay: soluble fraction after stress (log2 fold change); higher = more stays soluble; pooled small domains, quantitative proteomics; details: stress: 50 degC
Method in brief: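 Pooled custom libraries of small protein domains were each held under stress at 50°C. The read-out, high-throughput quantitative proteomics, tracked how much of each protein stayed soluble. This is reported as a base-two log fold change used to indicate aggregation propensity. Higher values mean more protein remains in solution.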

Row | Sequence | soluble fraction (log2)
1 | HMIVNTTRAPYLLGETEQDAMRLARQAGLVPEIVRQSSAEPAGTVILQSHDFDYRMRRGSVILITVSTGPL | -2.15
2 | HMNSLKNKNNLIALVGASNDKNKYGNKILLDLVSKGHNVVPINPKEDTVAGLKSYNNVSELSEKPSI | -0.211
3 | HMPVVKIPFILTEGPSSITKVIEIDADEILELKDVFQEDDKLWSINQIEMNDGRYVKHSDASLIVRASALR | 0.066
4 | HMHSPLLDRYLAEVGWRLRHLSGAQREDILAGLREHIADLESAGVAPEEIVARLGSPESVADAAAGEF | -0.334
5 | HMSISEFNYTEFNGLVEKGQVSEVTISGREIEGRLTSGESFKTYSPETDNSALVGDLLKNNVKINGKP | 0.12
6 | HMTQNSAITNRVLYMQRTLRQYGYAVPESGNFDRTTRAHAAEFLYNATGLPVRENQSVQEFYRAFQRVQG | -0.981
7 | HMSDPVDDLLLRISQQAGVARGQLVAELNMLVQDRFGGNLRHEAAAVLMAKRYGIEFRDLLPALREHLVKN | -0.00206
8 | HMGKIILLFSDDDGVFDTALYRVRNYDGHRFAQSLGNAEMKWRHSEDEYFDFVLTSLREDGYDIEEIE | -1.22
9 | HMEDELVMERFDINELVKSVVNANELRATQKNLSITYDILDTPLYVWADEYKVEEVVTNYLS | -0.143
10 | HMSIHPRDKADLGTALSKWKKGALDDKQLELEVARVFMRTYGKKLEGQALNKAVAAWVAALTQSKK | 0.506
11 | HMVDQAFQTQLKNIQARTGKNLDELYAFIRASGLVKHGEIRDLAKRELSLGHGDANTLAKFYLESLAAAA | 0.269
12 | HMRIEYYDDEELDRYIGTPASGYREAAVEEFREILLTLDADDVPGWVRSLQLRGIEFPESLRPELYL | -0.575
13 | HMSLDLERAVALLSLPRPVGNHPEDGELVEAGIGRYGPYVKHGSKYANLPDADEVFTIGMNRAVEVLAAK | -0.0399
14 | HMKEIGGGPASKFIYYLIKTKHPIEQGDLIGITHLPRRTVQSAIEDLKNQGFIIERNSLDDSRRKVYYPVK | 0.000762
15 | HMFPTLNEDEQTIVSALQKINDQPINTLSIHTALPIPRLTSLLFQLEIKGVIKQLAGGTYHVL | -0.427
16 | HMSRVTVDVNPDVLQWAIDKKGKGDIKNKFPKIDEWLNGISKPTIHQLENFAKYVSVPFGYLLLSKPPVE | 0.276
17 | HMTGIESVKPSSDFTVEGNRIVAGDAEVEVYDLAGRKVNNNNLTTGVYIAKIAGSAESVKVFV | 0.0109
18 | HMANVQLAKNLKTLRKKYNYTQQDVSTFLNITRQAYSHYEQALREPDLNTLVHLSRFYQVTLDELI | -3.8
19 | HMEDPVAQEARAAFEVGRLLAAATGPVTLAAIRRAIDLPEERLEEILRRLEESGAVRRARDGWLPG | 0.0888
20 | HMDPKISWESDEKLSANIGHYENSIKPLMGNKYLIELSQLKDKIESHPWVARATIKRIFWNKIHIQLESHD | 0.00717
21 | HMNERLKQLRLSLNLNQEEFGKWLGISKSGVSDIESGRRKVTEQHIIMLSNHNISEKWLRTGEGEMFV | -0.0803
22 | HMFEATGKITGTEVSFRRKPTTDSERILFFDINTEFRVIGINNGWYKGVYQGKTGYVRSDFVEIVGG | -0.162
23 | HMTHAISKTYAVTGEQLKNGFTLTHTFANGSTRRVDVYPGSRSGKVIAVRNTTDDTTEWIRIVEG | 0.0444
24 | HMPPDVIENIFKNDANKIIDLYNMAPRGQKETIVEMIKNKRLQGINVDANVLVKLGELTGIDFVN | 0.0803
25 | HMDAEKHIVTPEAGLRLDRALTDALPNLSRSRVKQLINEGLVTTENKTITAPSYRVKYGDSFEISIPPPT | -0.0636
26 | HMSKAYLSVESNISGARVFVDGQKEGTTPLSDVLLSAGEHLILVKKQGYETYQKRVRFQKGRSMSLYVDLS | -0.159
27 | HMGNEMQVPNVAGKTVDEAIEIFNNMGLKVAAENKYAQSDDVKEGDVVKTDPSSGRNVKKGSEITLYISQG | 0.0976
28 | HMSSYTQEDVRSGILYMAQLKPRNIEEFVSTLAFSKDDIMDNLSFLVDEGFLKFDADTDTYFNPVPL | -0.214
29 | HMNVNEIREMYPEGTQIVLTEMRGENQMPYGLKGTVKFVDDAGQIHMKWENGSSLALNINEDTFEKVE | 0.147
30 | HMNTYVLPDALKSQLSVEDTGMLTKQLQALPETLAEGVLDSLSQMLSKNTLQNPVGWMLAVMKRAREGNFN | -0.00363
